For this assay, the target named is T1, FLAG-tagged p61 BRAF(V600E/R509H) (Homo sapiens, UniProt P15056 1-168; P15056 381-766).
T1 construct: domain: exons 1-3;domain: exons 9-18; Expressed in 293H cells; also called dimerization-deficient mutant; not shown: FLAG tag
Kind of assay: co-immunoprecipitation of Flag- and V5-tagged forms from 293H cell lysate (FIG. 2C). On the procedure: FIG. 2C. To compare levels of dimerization, 293H cells co-expressing FLAG tagged and c-terminal V5-tagged p61BRAF(V600E), full length BRAF(V600E) and the corresponding dimerization-deficient mutants p61 BRAF(V600E/R509H) and BRAF(V600E/R509H) were lysed followed by immunoprecipitation with FLAG antibody. Western blots with V5 or FLAG antibodies were performed as indicated.
The inventors of the present invention then determined whether deletion of exons 4-8 promoted dimerization of p61 BRAF(V600E). To determine levels of dimerization, the inventors ectopically co-expressed two constructs encoding the same protein; either p61 BRAF(V600E) or full-length BRAF(V600E) with different tags (Flag or V5).

B1: V5-tagged p61 BRAF(V600E/R509H) (enzyme, Homo sapiens, UniProt P15056 1-168, looked up)
chain: MAALSGGGGGGAEPGQALFNGDMEPEAGAGAGAAASSAADPAIPEEVWNIKQMIKLTQEHIEALLDKFGGEHNPPSIYLEAYEEYTSKLDALQQREQQLLESLGNGTDFSVSSSASMDTVTSSSSSSLSVLPSSLSVFQNPTDVARSNPKSPQKPIVRVFLPNKQRTVDLIRDQGFRGDGGSTTGLSATPPASLPGSLTNVKALQKSPGPQRERKSSSSSEDRNRMKTLGRRDSSDDWEIPDGQITVGQRIGSGSFGTVYKGKWHGDVAVKMLNVTAPTPQQLQAFKNEVGVLRKTHHVNILLFMGYSTKPQLAIVTQWCEGSSLYHHLHIIETKFEMIKLIDIARQTAQGMDYLHAKSIIHRDLKSNNIFLHEDLTVKIGDFGLATEKSRWSGSHQFEQLSGSILWMAPEVIRMQDKNPYSFQSDVYAFGIVLYELMTGQLPYSNINNRDQIIFMVGRGYLSPDLSKVRSNCPKAMKRLMAECLKKKRDERPLFPQILASIELLARSLPKIHRSASEPSLNRAGFQTEDFSLYACASPKTPIQAGGYGAFPVH
notes: domain: exons 1-3;domain: exons 9-18; Expressed in 293H cells; also called dimerization-deficient mutant; not shown: V5 tag at the C-terminus
As for B1, the binding result was “no binding”.

The record behind these values is patent US20120301878A1 (Memorial Sloan Kettering, published 2012).
